From patent US20200148757A1 (KOREA ADVANCED INSTITUTE OF SCIENCE AND TECHNOLOGY, published 2020)

B1: human VEGF-A (ligand)
chain: APMAEGGGQNHHEVVKFMDVYQRSYCHPIETLVDIFQEYPDEIEYIFKPSCVPLMRCGGCCNDEGLECVPTEESNITMQIMRIKPHQGQHIGEMSFLQHNKCECRPKKDRARQENPCGPCSERRKHLFVQDPQTCKCSCKNTDSRCKARQLELNERTCRCDKPRR
notes: also called hVEGF-A
B2: human P1GF (ligand)
chain: LPAVPPQQWALSAGNGSSEVEVVPFQEVWGRSYCRALERLVDVVSEYPSEVEHMFSPSCVSLLRCTGCCGDENLHCVPVETANVTMQLLKIRSGDRPSYVELTFSQHVRCECRPLREKMKPERCGDAVPRR
notes: also called PlGF; placental growth factor

Experiments:
Cetuximab-VEGF-Grab [1] = biological target: T1, Cetuximab-VEGF-Grab; assay: BLI; EGFR ECD pre-bound to Cet-Grab, then VEGF-A (reverse order); EGFR ECD pre-bound to Cet-Grab
T1 construct: Made in Freestyle293F cells and purified on Protein A; also called Cet-Grab; scFv-Cetuximab-VEGF-Grab

Cetuximab-VEGF-Grab [2] = biological target: T1, Cetuximab-VEGF-Grab; assay: BLI (BLItz), biotinylated VEGF-A on streptavidin biosensor, 1:1 model
Description: (§1) Thereafter, to measure the dissociation rate (koff), each reaction product was allowed to react in a PBS buffer for 2 minutes. The final dissociation constant was calculated as a ratio of koff/kon. Sensorgrams were analyzed with the global fitting function using a 1:1 binding model (grouped by color and Rmax).

Cetuximab-VEGF-Grab [3] = biological target: T1, Cetuximab-VEGF-Grab; assay: BLI; EGFR ECD pre-bound to Cet-Grab, then P1GF (reverse order); EGFR ECD pre-bound to Cet-Grab
Cetuximab-VEGF-Grab [4] = biological target: T1, Cetuximab-VEGF-Grab; assay: BLI (BLItz), biotinylated P1GF on streptavidin biosensor, 1:1 model
Description: as §1

Row | Binder | Kd (Cetuximab-VEGF-Grab [1]) [nM] | Kd (Cetuximab-VEGF-Grab [2]) [nM] | Kd (Cetuximab-VEGF-Grab [3]) [nM] | Kd (Cetuximab-VEGF-Grab [4]) [nM]
1 | B1 | 1.17 | 1.04 |  | 
2 | B2 |  |  | 1.11 | 1.59
